Like-named read-outs stand apart in the source and are kept apart here. Each block holds one compound with its values, some of them ahead of it.
Experiments:
[1] = tested on: TNBC cell lines; conditions: criterion for cell lines considered sensitive (CAL-148, HCC-70, CAL-51, HCC-1395, HS-578T); cited from earlier work
[2] = tested on: TNBC cell lines; conditions: criterion for cell lines considered sensitive (HDQ-P1, CAL-51, HCC-70, CAL-148, HCC-1395, HS-578T); cited from earlier work
[3] = tested on: 22RV1 (high HER3 expressing prostate cancer) tumors; parameters: species or system Nu/nu mice; conditions: mouse, in vivo
Experimental: (§1) The peptide was radio labeled with the radiometal ^68Ga eluted from a ^68Ge/^68Ga generator (iThemba, South Africa) in 0.05M HCl. The pH of the elution was adjusted to approximately 4 by 2M=2-[4-(2-hydroxyethyl) piperazin-1-yl]ethanesulfonic acid and 100 ng of peptide reacted with the elution for 10 min at room temperature. Peptide was purified from free ^68Ga by reverse phase C18 cartridge (Waters, Milford, MA) and purity determined by ITLC. The peptide was then prepared in normal saline to a specific activity of approximately 300 MBq/mg for injection into mice. Nu/nu mice bearing either 22RV1 (high HER3 expressing prostate cancer) or HCC-1954 (low HER3 expressing breast cancer) tumors were implanted in the right upper flank of mice and grown to approximately 5-7 mm. Radiolabeled HER3 peptide was injected intravenously and allowed to circulate for 1 h prior to PET imaging. PET images were acquired on an Inveon micro PET/CT (Siemens, Knoxville, TN) for 15 minutes in list mode, followed by CT acquisition. Images were constructed using 3D-MLEM (20 subsets) and corrected for scatter and randoms. The tumor and blood uptake was calculated in a 3D region of interest drawn around the tumor and heart, respectively, using CT guidance. Images were post-processed using VivoQuant (InviCRO, Boston, MA).

[4] = tested on: HCC-1954 (low HER3 expressing breast cancer) tumors; parameters: species or system Nu/nu mice; conditions: mouse, in vivo
Experimental: as §1

[5] = molecular target: HER3 ECD (Homo sapiens, UniProt P21860); conditions: peptide ELISA absorbance
Experimental: (§2) The purity and molecular weight were determined by high performance liquid chromatography and mass spectrometry. […] Following blocking with 1% non-fat dry milk, increasing concentrations of peptide were incubated with target protein for 1 h at 37° C. Wells were washed with 0.1% TBST, and bound peptide detected by addition of HRP-conjugated streptavidin (Abeam, Cambridge, UK), washing and ABTS substrate incubation for 10 minutes. Absorbance at 405 nm was read by spectrophotometer. […] Plates were washed and bound peptide once again detected by addition of streptavidin-HRP and ABTS and absorbance read at 405 nm.

[6] = molecular target: EGFR (Homo sapiens, UniProt P00533); conditions: 250 nM peptide, 405 nm
Experimental: as §2

[7] = tested on: MDA-MB-453 breast cancer cells (moderate HER3); assay: HER3 peptide cellular binding (streptavidin-HRP absorbance, fluorescent microscopy), MDA-MB-453; format: cell-based
Experimental: (§3) Two cell lines, MDA-MB-453 breast cancer cells which express moderate levels of HER3 and HCC-1954 cells which express low levels of HER3, were chosen to assess the ability of the peptide to discriminate between relatively close expression levels in vitro. Cells were seeded at a density of 1×10^5 cells/well in 96 well plates (Fisher) and grown overnight for 24 h in fetal bovine serum supplemented medium. HER3 peptide or a control peptide were added at 250 nM in media and incubated for 1 h at 37° C. Cells were washed 3× with PBS and bound peptide detected by addition of streptavidin-HRP. Cells were once again washed and bound peptide detected by addition of ABTS and absorbance read at 405 nm. Visual confirmation of peptide binding was confirmed by fluorescent microscopy. MDA-MB-453 and HCC-1954 cells were fixed in 10% formalin and dried onto microscope slides overnight. Following rehydration with TBS, slides were blocked with 2% BSA in TBS for 1 h prior to addition of peptide at a concentration of 250 nM in 0.1% TBST and incubation at room temperature for 1 h. Cells were washed 3× with 0.1% TBST and neutravidin-Alexafluor488 was added to cells and incubated at room temperature for 1 h. Cells were washed, mounted with Vectorshield mounting media with DAPI (Vector Labs, Burlingame, CA) and visualized by inverted microscope (Olympus, Tokyo, Japan).

[8] = tested on: HCC-1954 cells (low HER3); assay: HER3 peptide cellular binding (streptavidin-HRP absorbance, fluorescent microscopy), HCC-1954; format: cell-based; conditions: fixed HCC-1954 cells, 250 nM peptide
Experimental: as §3

[9] = tested on: human MDA-MB-453 tumors; parameters: species or system mice; conditions: mouse, in vivo
Experimental: Following imaging, mice were treated with 100 mg/kg of lapatinib every 12 hours for 48 hours following PET imaging. At the end of 48 hours, mice were imaged in the exact same manner as before treatment.

[10] = mouse, in vivo, iv
Source text: Following PET acquisition, tumors and relevant organs were removed from mice, weighed, and total activity for each was quantified by a Wallac gamma counter (Perkin Elmer, Waltham, MA). […] The specific activity of the labeled peptide was 296±25.9 MBq/mg.

Sequence of HER3 ECD (P21860 20-643 limits assumed): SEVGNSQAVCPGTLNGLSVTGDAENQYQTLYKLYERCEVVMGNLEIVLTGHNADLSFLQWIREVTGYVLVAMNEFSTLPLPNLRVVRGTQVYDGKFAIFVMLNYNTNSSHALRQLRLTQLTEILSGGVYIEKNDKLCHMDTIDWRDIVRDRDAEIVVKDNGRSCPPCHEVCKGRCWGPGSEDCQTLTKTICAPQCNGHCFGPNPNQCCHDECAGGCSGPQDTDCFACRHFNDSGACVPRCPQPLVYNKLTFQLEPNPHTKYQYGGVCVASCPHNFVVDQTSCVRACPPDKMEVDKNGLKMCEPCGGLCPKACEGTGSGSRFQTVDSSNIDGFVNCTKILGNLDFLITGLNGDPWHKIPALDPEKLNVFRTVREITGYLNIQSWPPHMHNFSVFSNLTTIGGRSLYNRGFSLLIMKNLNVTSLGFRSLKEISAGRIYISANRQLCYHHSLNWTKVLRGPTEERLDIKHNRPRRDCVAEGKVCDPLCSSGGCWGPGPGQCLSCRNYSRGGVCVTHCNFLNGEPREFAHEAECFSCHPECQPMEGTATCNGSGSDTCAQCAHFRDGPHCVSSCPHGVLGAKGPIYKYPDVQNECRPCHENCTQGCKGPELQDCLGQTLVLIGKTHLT

Compound: CC(C)NC[C@@H](C(=O)N1CCN(c2ncnc3c2[C@H](C)C[C@H]3O)CC1)c1ccc(Cl)cc1 [GDC-0068]
IC50 [1]: < 1000 nM

Compound: CS(=O)(=O)N1CCN(Cc2cc3nc(-c4cccc5[nH]ncc45)nc(N4CCOCC4)c3s2)CC1 [GDC-0941]
IC50 [2]: < 1000 nM

Compound: CC(C)C[C@@H]1NC(=O)[C@@H](NC(=O)CNC(=O)CNC(=O)CNC(=O)CCNC(=S)Nc2ccc(CC3CN(CC(=O)O)CCN(CC(=O)O)CCN3CC(=O)O)cc2)CSSC[C@@H](C(=O)O)NC(=O)[C@H](CO)NC(=O)[C@H](CCCNC(=N)N)NC(=O)[C@H](Cc2ccccc2)NC(=O)[C@H](CCCCN)NC(=O)[C@H]([C@@H](C)O)NC(=O)[C@@H]2CCCN2C1=O (stereo partly drawn) [^68Ga-(NOTA-NCS)-HER3P1, ^68Ga-(NOTA-NCS)-beta A-G-G-G-C-L-P-T-K-F-R-S-C, metal not drawn]
off-target peptide accumulation [3]: minimal
tumor uptake by PET imaging [3]: high
standardized tumor to blood ratios (TBR) ([3]; iv): 1.60-3.32
tumor uptake by PET imaging [4]: much lower levels
standardized tumor to blood ratios (TBR) ([4]; iv): 0.69-0.94

selectivity/specificity for HER3 over other proteins (EGFR, HER2, BSA) [5]: approximately 4 fold
selectivity/specificity for HER3 over other proteins (EGFR, HER2, BSA) ([5]; listed as displayed peptide conjugated to biotin): greater than 4 fold
absorbance of binding to EGFR [6]: 0.21±0.09
Compound: C-L-P-T-K-F-R-S-C [HER3P1]
cell binding absorbance ([7]; MDA-MB-453, 250 nM peptide, 1 h 37° C., 405 nm): 0.29±0.06
binding by fluorescent microscopy ([7]; fixed MDA-MB-453 cells, 250 nM peptide): high binding
binding by fluorescent microscopy [8]: almost no visualization
SUVmean [9]: 0.42±0.04
biodistribution, HER3+ tumors [10]: 0.50±0.18 % ID/g
biodistribution, intestines [10]: 0.48±0.15 % ID/g
biodistribution, kidneys [10]: 10.1±1.67 % ID/g
biodistribution, lungs [10]: 0.70±0.14 % ID/g
biodistribution, stomach [10]: 0.30±0.07 % ID/g
